What is called EC50 (read off the curve) is the concentration giving half of the maximal effect. Low values mean higher potency in that assay, high ones lower potency in that assay.

Assay [1] concerns the target T1, human DLL3 (Delta-like ligand 3) (human, UniProt Q9NYJ7 27-618).
T1 construct: endogenous on SHP-77 cells; also called cell-surface DLL3
T1 sequence: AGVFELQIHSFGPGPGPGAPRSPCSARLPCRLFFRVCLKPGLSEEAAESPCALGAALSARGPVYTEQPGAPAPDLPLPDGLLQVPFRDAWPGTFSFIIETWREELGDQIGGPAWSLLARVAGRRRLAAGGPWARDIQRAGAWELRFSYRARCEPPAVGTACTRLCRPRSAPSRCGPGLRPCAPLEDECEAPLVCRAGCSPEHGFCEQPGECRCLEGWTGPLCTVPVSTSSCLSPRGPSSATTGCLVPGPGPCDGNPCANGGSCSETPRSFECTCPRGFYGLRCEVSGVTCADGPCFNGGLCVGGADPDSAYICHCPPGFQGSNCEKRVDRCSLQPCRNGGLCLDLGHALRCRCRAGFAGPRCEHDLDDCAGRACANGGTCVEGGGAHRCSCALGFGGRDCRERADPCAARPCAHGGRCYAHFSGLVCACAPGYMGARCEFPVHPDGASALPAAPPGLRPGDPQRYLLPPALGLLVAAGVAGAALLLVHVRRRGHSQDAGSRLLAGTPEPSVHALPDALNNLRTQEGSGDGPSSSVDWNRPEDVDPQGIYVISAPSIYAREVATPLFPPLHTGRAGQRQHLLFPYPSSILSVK
Briefly: flow cytometry, sdAb-Fc titrated on SHP-77 cells (DLL3 positive), APC anti-human Fc secondary. The method, then:
(§1) FIGS. 2A-L set forth a series of graphs depicting the ability of sdAb and humanized variants thereof targeting DLL3 to bind cell surface DLL3.
(§2) Specificity and relative affinity were assessed for purified sdAb-Fcs on DLL3-expressing cells. […] A titration series of the fusion protein was incubated with the DLL3-expressing cell lines (approximately 2.5×10⁴ to 5×10⁴ cells/well) for 30 minutes at 4 degrees Celsius in FACS Buffer (PBS 1% BSA, 0.1% NaN₃ pH 7.4) in 96-well plates. Following three wash steps in FACS buffer, an APC-conjugated anti-human Fcγ specific secondary antibody (Jackson ImmunoResearch) was added and incubated for 30 minutes at 4 degrees Celsius. Following three additional wash steps in FACS buffer bound antibody was detected via flow cytometry (IQue Intellicyte).
Background: A flow cytometer gives signals particle by particle.

Assay [2] concerns the target T1, human DLL3 (Delta-like ligand 3). Kind of assay: flow cytometry, SHP-77 cells.
Assay [3] shares this target. Briefly: flow cytometry, sdAb-Fc titrated on 293FS cells transfected with DLL3 (panel title DLL3-FL), APC anti-human Fc secondary. The protocol: as §1, §2

B1: hz5A8v6 (Fc fusion)
VHH: EVQLVESGGGEVQPGGSLRLSCAASGSIFSINAMGWYRQAPGKQRELVAVVSSEGRTTVAPSVKGRFTISRDNAKNTVYLQMSSLRAEDTAVYYCGVREWYSDSDWRDYEGQGTLVTVKP
notes: tested as VHH-human Fc; Fc not specified
As to B1, the binding result in assay [1] is recorded as “binds”.

B2: hz5A8v8 (Fc fusion)
VHH: EVQLVESGGGEVQPGGSLRLSCAASGSIFSINAMGWYRQAPGKQRELVAVVSSDGRTTVAPSVKGRFTISRDNAKNTVYLQMSSLRAEDTAVYYCGVREWYSDADWRDYEGQGTLVTVKP
notes: as for B1
As to B2, the binding result in assay [1] is “binds”.

B3: hz5A8v12 (Fc fusion)
VHH: EVQLVESGGGEVQAGGSLRLSCAASGSIFSINAMGWYRQAPGKQRELVAVVSSDGRTTVAPSVKGRFTISRDNAKNTVYLQMSSLRAEDTAVYYCGVREWYSDSDWRDYEGQGTLVTVKP
notes: as for B1
On to B3, for which the binding result in assay [2] was “binds”.

B4: hz5A8v9 (Fc fusion)
VHH: EVQLVESGGGEVQPGGSLRLSCAASGSIFSINAMGWYRQAPGKQRELVAVVSSDGRTTVAPSVKGRFTISRDNAKNTVYLQMSSLRAEDTAVYYCGVREWYSESDWRDYEGQGTLVTVKP
notes: as for B1
As for B4, in assay [1], the binding result is given as “binds”.

B5: hz5A8v10 (Fc fusion)
VHH: EVQLVESGGGEVQPGGSLRLSCAASGSIFSINAMGWYRQAPGKQRELVAVVSSDARTTVAPSVKGRFTISRDNAKNTVYLQMSSLRAEDTAVYYCGVREWYSDADWRDYEGQGTLVTVKP
notes: as for B1
Turning to B5, the binding result in assay [2] is recorded as “binds”.

B6: hz5A8v7 (Fc fusion)
VHH: EVQLVESGGGEVQPGGSLRLSCAASGSIFSINAMGWYRQAPGKQRELVAVVSSDARTTVAPSVKGRFTISRDNAKNTVYLQMSSLRAEDTAVYYCGVREWYSDSDWRDYEGQGTLVTVKP
notes: as for B1
With B6, in assay [1], the binding result was “binds”.

B7: hz5A8v11 (Fc fusion)
VHH: EVQLVESGGGEVQPGGSLRLSCAASGSIFSINAMGWYRQAPGKQREWVAVVSSDGRTTVAPSVKGRFTISRDNAKNTVYLQMSSLRAEDTAVYYCGVREWYSDSDWRDYEGQGTLVTVKP
notes: as for B1
Turning to B7, the binding result in assay [2] is on record as “binds”.

B8: hz10E5v1 (Fc fusion)
VHH: EVQLVESGGGEVQPGGSLRLSCAASGFTLDDYTIGWFRQAPGKEREGVSCISSSGGSTYYAESVKGRFTISRDNAKNTLYLQMSSLRAEDTAVYYCATYCPVVVGPELGYDYWGQGTLVTVKP
notes: as for B1
Consider B8, for which, in assay [1], the “EC50 (read off the curve)” value was around 5 nM.

B9: hz10E5v3 (Fc fusion)
VHH: EVQLVESGGGEVQPGGSLRLSCAASGFTLDDYTIGWFRQAPGKEREGVSCISSSGGSTYYAESVKGRFTISRDNAKNTLYLQMNDLRAEDTAVYYCATYCPVVVGPELGYDYWGQGTLVTVKP
notes: as for B1
Take B9: the “EC50 (read off the curve)” value in assay [1] was around 7 nM.

B10: hz10E5v2 (Fc fusion)
VHH: EVQLVESGGGEVQPGGSLRLSCAASGFTLDDYTIGWFRQAPGKEREGVSCISSSGGSTYYAESVKGRFTISRDNAKNTVWLQMSSLRAEDTAVYYCATYCPVVVGPELGYDYWGQGTLVTVKP
notes: as for B1
B10: in assay [1], the “EC50 (read off the curve)” value was around 7 nM.

B11: hz10E5v5 (Fc fusion)
VHH: EVQLVESGGGEVQPGGSLRLSCAASGFTLDDYTIGWFRQFPGKEREGVSCISSSGGSTYYAESVKGRFTISRDNAKNTLYLQMSSLRAEDTAVYYCATYCPVVVGPELGYDYWGQGTLVTVKP
notes: as for B1
Take B11: the “EC50 (read off the curve)” value in assay [1] is around 7 nM.

B12: L10E5 (Fc fusion)
VHH: EVQLVQSGGGLVQPGGSLRLSCAASGFTLDDYTIGWFRQFPGKEREGVSCISSSGGSTYYADSVKGRFTISRDNAKNTVWLQMNDLKSEDTAIYYCATYCPVVVGPELGYDYWGQGTQVTVKP
notes: as for B1
On to B12, for which the “EC50 (read off the curve)” value in assay [1] is around 3 nM.

B13: hz10E5v4 (Fc fusion)
VHH: EVQLVESGGGEVQPGGSLRLSCAASGFTLDDYTIGWFRQAPGKEREGVSCISSSGGSTYYAESVKGRFTISRDNAKNTLYLQMSSLKSEDTAIYYCATYCPVVVGPELGYDYWGQGTLVTVKP
notes: as for B1
On to B13, for which the “EC50 (read off the curve)” value in assay [1] was around 10 nM.

B14: hz10D9v8 (Fc fusion)
VHH: EVQLVESGGGEVQPGGSLRLSCAASGFTFSINAMGWYRQAPGKQRELVAGFTGDTNTIYAESVKGRFTISRDNAKNTVYLQMSSLRAEDTAVYYCAADVQLFSRDYEFYWGQGTLVTVKP
notes: as for B1
In the case of B14, in assay [2], the binding result was “binds”.

B15: hz10D9v10 (Fc fusion)
VHH: EVQLVESGGGEVQPGGSLRLSCAASGSIFSSNAMGWYRQAPGKQRELVAGFTGDTNTIYAESVKGRFTISRDNAKNTVYLQMSSLRAEDTAVYYCAADVQLFSRDYEFYWGQGTLVTVKP
notes: as for B1
For B15, the binding result in assay [2] was “binds”.

B16: hz10D9v12 (Fc fusion)
VHH: EVQLVESGGGEVQPGGSLRLSCAASGSIFSIYAMGWYRQAPGKQRELVAGFTGDTNTIYAESVKGRFTISRDNAKNTVYLQMSSLRAEDTAVYYCAADVQLFSRDYEFYWGQGTLVTVKP
notes: as for B1
Turning to B16, the binding result in assay [2] is given as “binds”.

B17: hz10D9v13 (Fc fusion)
VHH: EVQLVESGGGEVQPGGSLRLSCAASGFIFSINAMGWYRQAPGKQRELVAGFTGDTNTIYAESVKGRFTISRDNAKNTVYLQMSSLRAEDTAVYYCAADVQLFSRDYEFYWGQGTLVTVKP
notes: as for B1
As for B17, in assay [2], the binding result is on record as “binds”.

B18: hz10D9v9 (Fc fusion)
VHH: EVQLVESGGGEVQPGGSLRLSCAASGFTFSSYAMGWYRQAPGKQRELVAGFTGDTNTIYAESVKGRFTISRDNAKNTVYLQMSSLRAEDTAVYYCAADVQLFSRDYEFYWGQGTLVTVKP
notes: as for B1
Consider B18, for which the binding result in assay [2] is recorded as “binds”.

B19: hz10D9v11 (Fc fusion)
VHH: EVQLVESGGGEVQPGGSLRLSCAASGFIFSSYAMGWYRQAPGKQRELVAGFTGDTNTIYAESVKGRFTISRDNAKNTVYLQMSSLRAEDTAVYYCAADVQLFSRDYEFYWGQGTLVTVKP
notes: as for B1
As for B19, the binding result in assay [2] is recorded as “binds”.

B20: hz8E7v8 (Fc fusion)
VHH: EVQLVESGGGEVQPGGSLRLSCGPSEIITSDKSVGWYRQAPGKQRNLVAGISNVGSTNYAQSVKGRFTISRDNAKNTLYLQMSSLRAEDTAVYYCYARDFENEYWGQGTLVTVKP
notes: as for B1
Turning to B20, the binding result in assay [3] is “binds”.

B21: hz8E7v16 (Fc fusion)
VHH: EVQLVESGGGEVQPGGSLRLSCGPSEIITSDKSMGWVRQAPGKQRNLVAGISNVGSTNYAQSVKGRFTISRDNAKNTVYLQMSSLRAEDTAVYYCYARDFENEYWGQGTLVTVKP
notes: as for B1
In the case of B21, the binding result in assay [2] is on record as “binds”.

B22: hz8E7v14 (Fc fusion)
VHH: EVQLVESGGGEVQPGGSLRLSCGPSEIITSDKSVGWVRQAPGKQRNLVAGISNVGSTNYAQSVKGRFTISRDNAKNTVYLQMSSLRAEDTAVYYCYARDFENEYWGQGTLVTVKP
notes: as for B1
For B22, in assay [2], the binding result was “binds”.

B23: hz8E7v13 (Fc fusion)
VHH: EVQLVESGGGEVQPGGSLRLSCGPSEIITSDKSMGWWRQAPGKQRNLVAGISNVGSTNYAQSVKGRFTISRDNAKNTVYLQMSSLRAEDTAVYYCYARDFENEYWGQGTLVTVKP
notes: as for B1
Take B23: the binding result in assay [2] is “binds”.

B24: hz8E7v12 (Fc fusion)
VHH: EVQLVESGGGEVQPGGSLRLSCGPSEIITSDKSVGWWRQAPGKGRELVAGISNVGSTNYAQSVKGRFTISRDNAKNTLYLQMSSLRAEDTAVYYCYARDFENEYWGQGTLVTVKP
notes: as for B1
Regarding B24, the binding result in assay [2] is listed as “binds”.

B25: hz6C5v6 (Fc fusion)
VHH: EVQLVESGGGEVQPGGSLRLSCAASEITFSDKTVGWYRQAPGKQRVLVAVISNVDATNYAESVKGRFTISRDNAKNTVYLQMSSLRAEDTAVYYCHARDFENEYWGQGTLVTVKP
notes: as for B1
On to B25, for which the binding result in assay [2] was “binds”.

B26: hz8E7v15 (Fc fusion)
VHH: EVQLVESGGGEVQPGGSLRLSCGPSEIITSDKSMGWVRQAPGKQRNLVAGISNVGSTNYAQSVKGRFTISRDNAKNTLYLQMSSLRAEDTAVYYCYARDFENEYWGQGTLVTVKP
notes: as for B1
B26: in assay [2], the binding result is on record as “binds”.

For the origin of these results see patent publication US20210380679A1 (INHIBRX BIOSCIENCES, published 2021).
